In patent US20130303441:

T1: pIRS-1 peptide substrate, RREGGMSRPAS(p)VDG
T1 chain: RREGGMSRPASVDG

T2: pGS-1 peptide substrate, YRRAAVPPSPSLSRHSSPSQS(p)EDEEE
T2 chain: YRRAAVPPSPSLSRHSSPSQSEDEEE

T3: p9CREB peptide substrate, ILSRRPS(p)YR
T3 chain: ILSRRPSYR

T4: L803-mts, cell permeable variant of L803 with myristic acid attached to its N-terminal
T4 chain: GKEAPPAPPQSP


Key:
[1] = biological target: T1, pIRS-1 peptide substrate, …
[2] = biological target: T2, pGS-1 peptide substrate, …
[3] = biological target: T3, p9CREB peptide substrate, ILSRRPS(p)YR
[4] = biological target: T4, L803-mts, cell permeable variant of …

| Protein | Substrate phosphorylation (% of WTGSK-3β), in vitro kinase assay (% of WT GSK-3β) [1] | Substrate phosphorylation (% of WTGSK-3β), in vitro kinase assay (% of WT GSK-3β) [2] | Substrate phosphorylation (% of WTGSK-3β), in vitro kinase assay (% of WT GSK-3β) [3] | in vitro kinase assays using pIRS-1, p9CREB and pGS-1 substrate in the presence or absence of L803-mts (100 µM) [4] |
| --- | --- | --- | --- | --- |
| GSK-3β F93A mutant (protein) MSGRPRTTSFAESCKPVQQPSAFGSMKVSRDKDGSKVTTVVATPGQGPDRPQEVSYTDTKVIGNGSFGVVYQAKLCDSGELVAIKKVLQDKRAKNRELQIMRKLDHCNIVRLRYFFYSSGEKKDEVYLNLVLDYVPETVYRVARHYSRAKQTLPVIYVKLYMYQLFRSLAYIHSFGICHRDIKPQNLLLDPDTAVLKLCDFGSAKQLVRGEPNVSYICSRYYRAPELIFGATDYTSSIDVWSAGCVLAELLLGQPIFPGDSGVDQLVEIIKVLGTPTREQIREMNPNYTEFKFPQIKAHPWTKDSSGTGHFTSGVRVFRPRTPPEAIALCSRLLEYTPTARLTPLEACAHSFFDELRDPNVKLPNGRDTPALFNFTTQELSSNPPLATILIPPHARIQAAASTPTNATAASDANTGDRGQTNNAASASASNST | 42 | 13 | 46 |  |
| GSK-3β K94A mutant (protein) MSGRPRTTSFAESCKPVQQPSAFGSMKVSRDKDGSKVTTVVATPGQGPDRPQEVSYTDTKVIGNGSFGVVYQAKLCDSGELVAIKKVLQDKRFANRELQIMRKLDHCNIVRLRYFFYSSGEKKDEVYLNLVLDYVPETVYRVARHYSRAKQTLPVIYVKLYMYQLFRSLAYIHSFGICHRDIKPQNLLLDPDTAVLKLCDFGSAKQLVRGEPNVSYICSRYYRAPELIFGATDYTSSIDVWSAGCVLAELLLGQPIFPGDSGVDQLVEIIKVLGTPTREQIREMNPNYTEFKFPQIKAHPWTKDSSGTGHFTSGVRVFRPRTPPEAIALCSRLLEYTPTARLTPLEACAHSFFDELRDPNVKLPNGRDTPALFNFTTQELSSNPPLATILIPPHARIQAAASTPTNATAASDANTGDRGQTNNAASASASNST | 52 | 19 | 71 |  |
| GSK-3β K91A mutant (protein) MSGRPRTTSFAESCKPVQQPSAFGSMKVSRDKDGSKVTTVVATPGQGPDRPQEVSYTDTKVIGNGSFGVVYQAKLCDSGELVAIKKVLQDARFKNRELQIMRKLDHCNIVRLRYFFYSSGEKKDEVYLNLVLDYVPETVYRVARHYSRAKQTLPVIYVKLYMYQLFRSLAYIHSFGICHRDIKPQNLLLDPDTAVLKLCDFGSAKQLVRGEPNVSYICSRYYRAPELIFGATDYTSSIDVWSAGCVLAELLLGQPIFPGDSGVDQLVEIIKVLGTPTREQIREMNPNYTEFKFPQIKAHPWTKDSSGTGHFTSGVRVFRPRTPPEAIALCSRLLEYTPTARLTPLEACAHSFFDELRDPNVKLPNGRDTPALFNFTTQELSSNPPLATILIPPHARIQAAASTPTNATAASDANTGDRGQTNNAASASASNST | 140 | 119 | 161 |  |
| GSK-3β D90A mutant (protein) MSGRPRTTSFAESCKPVQQPSAFGSMKVSRDKDGSKVTTVVATPGQGPDRPQEVSYTDTKVIGNGSFGVVYQAKLCDSGELVAIKKVLQAKRFKNRELQIMRKLDHCNIVRLRYFFYSSGEKKDEVYLNLVLDYVPETVYRVARHYSRAKQTLPVIYVKLYMYQLFRSLAYIHSFGICHRDIKPQNLLLDPDTAVLKLCDFGSAKQLVRGEPNVSYICSRYYRAPELIFGATDYTSSIDVWSAGCVLAELLLGQPIFPGDSGVDQLVEIIKVLGTPTREQIREMNPNYTEFKFPQIKAHPWTKDSSGTGHFTSGVRVFRPRTPPEAIALCSRLLEYTPTARLTPLEACAHSFFDELRDPNVKLPNGRDTPALFNFTTQELSSNPPLATILIPPHARIQAAASTPTNATAASDANTGDRGQTNNAASASASNST | 88 | 83 | 92 |  |
| wild-type (WT) GSK-3β (protein) MSGRPRTTSFAESCKPVQQPSAFGSMKVSRDKDGSKVTTVVATPGQGPDRPQEVSYTDTKVIGNGSFGVVYQAKLCDSGELVAIKKVLQDKRFKNRELQIMRKLDHCNIVRLRYFFYSSGEKKDEVYLNLVLDYVPETVYRVARHYSRAKQTLPVIYVKLYMYQLFRSLAYIHSFGICHRDIKPQNLLLDPDTAVLKLCDFGSAKQLVRGEPNVSYICSRYYRAPELIFGATDYTSSIDVWSAGCVLAELLLGQPIFPGDSGVDQLVEIIKVLGTPTREQIREMNPNYTEFKFPQIKAHPWTKDSSGTGHFTSGVRVFRPRTPPEAIALCSRLLEYTPTARLTPLEACAHSFFDELRDPNVKLPNGRDTPALFNFTTQELSSNPPLATILIPPHARIQAAASTPTNATAASDANTGDRGQTNNAASASASNST |  |  |  | L803-mts competes with various substrates |
| GSK-3β R92A mutant (protein) MSGRPRTTSFAESCKPVQQPSAFGSMKVSRDKDGSKVTTVVATPGQGPDRPQEVSYTDTKVIGNGSFGVVYQAKLCDSGELVAIKKVLQDKAFKNRELQIMRKLDHCNIVRLRYFFYSSGEKKDEVYLNLVLDYVPETVYRVARHYSRAKQTLPVIYVKLYMYQLFRSLAYIHSFGICHRDIKPQNLLLDPDTAVLKLCDFGSAKQLVRGEPNVSYICSRYYRAPELIFGATDYTSSIDVWSAGCVLAELLLGQPIFPGDSGVDQLVEIIKVLGTPTREQIREMNPNYTEFKFPQIKAHPWTKDSSGTGHFTSGVRVFRPRTPPEAIALCSRLLEYTPTARLTPLEACAHSFFDELRDPNVKLPNGRDTPALFNFTTQELSSNPPLATILIPPHARIQAAASTPTNATAASDANTGDRGQTNNAASASASNST | 60 | 41 | 49 |  |
